Laboratory results from patent US20050250717, “Chromatin remodeling protein as a marker expressed by stromal progenitor cells” (Ramot AT Tel Aviv University Ltd., published 2005).

T1: ChroM1 DNA-binding domain recombinant protein (rP, residues 2333-2480) (Homo sapiens, UniProt Q3L8U1 SEQ:2333-2480)
T1 sequence: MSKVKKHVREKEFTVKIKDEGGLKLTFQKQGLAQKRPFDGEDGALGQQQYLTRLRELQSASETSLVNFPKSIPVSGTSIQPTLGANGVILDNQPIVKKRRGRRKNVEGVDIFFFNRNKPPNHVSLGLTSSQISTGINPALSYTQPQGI


Key:
[1] = molecular target: T1, ChroM1 DNA-binding domain recombinant …; assay: EMSA; 1-3 ug rP; binding increases with protein; abolished by 100x cold oligo; 26 mM Hepes pH 7.9, 2 mM MgCl2, 40 mM KCl, RT; strandedness of probe not stated; conditions: label: 32P
Method: Electrophoretic mobility shift assay (EMSA): EMSA was performed between recombinant protein (rP) containing the DNA binding domain (residues 2333-2480 from sequence of ChroM1) and ³²P-labeled 32-mer oligonucleotide containing 24 A·T nucleotides, […] (SEQ ID NO:14). 1-3 μg of rP and 100,000 cpm of ³²P-labeled oligonucleotides were used for the binding reaction in the presence or absence of 100 fold excess cold oligonucleotide. The reaction was carried out in 20 μl of binding buffer (26 mM Hepes, pH 7.9, 2 mM MgCl₂, 40 mM KC1, 1 mM dithiothreitol and 0.25% BSA). The samples were incubated for 15 min at room temperature prior to loading in 5% native polyacrylamide gel in 0.25 Tris borate-EDTA (TBE). The gel was run for 40 min at RT and in TBE buffer. The gels were then dried and autoradiographed.

[2] = molecular target: T1, ChroM1 DNA-binding domain recombinant …; assay: EMSA; binding reduced by distamycin A

| Binder | binding result [1] | binding result [2] |
| --- | --- | --- |
| A/T-rich 32-mer oligonucleotide (dsDNA) DNA 1: GATCCATATATATATATATATATATATATGCA DNA 2: TGCATATATATATATATATATATATATGGATC | binds | – |
| BMP4 distal promoter PCR fragment (145 bp) (dsDNA) DNA 1: GCTAAAGGAGCACAATGCCTGATGCTGCAGGAGAAACATTAGGTAACTATTTAATGGAGTTTTAATTTTCTGTTATTATTTTTAATAATTAATTGTGATTTTGACTATTTGGAAGCTACAGGTATATTTTGTCCTCCTTTTGGGG DNA 2: CCCCAAAAGGAGGACAAAATATACCTGTAGCTTCCAAATAGTCAAAATCACAATTAATTATTAAAAATAATAACAGAAAATTAAAACTCCATTAAATAGTTACCTAATGTTTCTCCTGCAGCATCAGGCATTGTGCTCCTTTAGC | – | binds |
